One assay has as its target Histone H4 (human) (UniProt P62805). The assay can be described thus: in vivo azide-A-DSBSO XL-MS, HEK 293 cells.
In a further assay the target is Histone H3.2 (human) (UniProt Q71DI3). Nature of the assay: in vivo azide-A-DSBSO XL-MS, HEK 293 cells.

With “Histone H2B (core histone, isoforms not told apart)”, the values for the unique cross-linked peptides with Histone H4 (human) and with Histone H3.2 (human) were 10 peptides and 8 peptides, respectively.

Source of the values: patent publication US20170082635A1.
